Assay results from the DeepSol protein solubility set.

Assay: soluble on expression in E. coli; label from the status in PepcDB or PDB records

Row | Sequence | soluble on expression in E. coli
1 | MVFYLIGLGLGDVEDITVKGLNIVKNCARVHLEAYTSILCYGLDKTNLEKFYGREIIEADRTVVEQESDAILNGADKEDVALLVVGDPFGATTHADLVLRAKQQNIPVKVIHNASIMNAVGCCGLQLYNFGETVSIVMWTDEWQPESYYDKIALNRKRGMHTLCLLDIKTKEQTVENMMRGRKIFEPARYQKCSEAARQLLTIYERRKAKGEECAYDENTMVVGLARVGWDNQKIVYASMKDMSEMEMGEPLHSLIIPGETHPLEVDMLETFRP | not soluble
2 | MSLRFEGIYTPAVTPHTPDGDIDWAVFSEVLESLIEANVHGIIIGGSTGEYYAQTAEERLKLAAHAKDVMGNRVQLIIGTGAIRTEDAVLFAKDAKALKADAILVTTPPYALPTDQENAIHALTIDRAANMPIMLYNYPGRMGVQMNEDYLARVGKSKNVIAIKESSGEMGRVHLLAREFPHIALSCGWDDQALEFFAWGARSWVCAGSNFLPREHVALYEACVIEKNFDKGRQIMSAMMPLMHALDGGKFVQCIKFGCELNGLKVGDVRAPLRPLNAEDKRSLQTVIANVKEGHHHHHH | not soluble
3 | MGSDKIHHHHHHMLDKRAQILLKTLIEHYISDGQPVGSRKLSVASGLDLSPASIRNIMSELEDHGFIASPHTSAGRIPTQRGYRLFVDTLLTVQPLQNQEIRKLENVLSSPDPQELINKAAELLSSLTHFAGLVMIPKRQGAAFRHLEFLPLSEKRILVIIVTTDGAVQNRIILAEKPYSASDLTQASNFFNQHYAGNTLDEVKQKLHEELKQMQSDMTRLMAAALEASSKTADNKDGVVIAGKRNLLDVQDLSTNVSSLRKLFEMFEHRTSLMQLLDQSQKASGVQIFIGGESGYLPLDECSMVTAPYETNGQTIGTLGVIGPTRMAYERVIPIVDITAKLLSNALSNNH | not soluble
4 | RSAFSKIESEEYNSLKSSTIQTIGTSDGGSGIGYIESGDYLVFNKINFGNGANSFKARVASGADTPTNIQLRLGSPTGTLIGTLTVASTGGWNNYEEKSCSITNTTGQHDLYLVFSGPVNIDYFIFDSNGVNP | soluble
5 | MRYFLCPGKTDMRKGMNSLCGVIHNKMGYDVRLGDVFIFINRQRTTMKLLHAEDGDLVLYIKRLEEGTFRLPEYDQQSRSYPMEWRDLVMMVKGINNGSAKRLKRLKALRKSDI | not soluble
6 | MLSCELYRMSTYSTFPAGVPVSERSLARAGFYYTGVNDKVKCFCCGLMLDNWKRGDSPTEKHKKLYPSCRFVQSL | soluble
7 | MQLSRQDEPLYLGLAETLRDELAGYQPGDYLPAEFQLAERFSVNRHTIRRAVDELVREGSVLRRQGKGTQVLERPLIYPMQADSAYSQSLSAQGVGVEAILLLRRECQASHEDALHLGLAEHAPVIELQTLRKLDGQAVSLIFHRYSAVYHELLADYQGGSVRQYLAECGLPLSRAQSLIGARLPSREEAGLLLMPRHMPALTVLTVSCDGAGQPVELSRSVSRSDRFQYQVATAIPTR | not soluble
8 | MRFFYDTEFIEDGETIDLVSIGIVCEDGREYYAVSTDADHSRANKWVRDNVLDKMPNPSSTLWKSNATIRQEVYEFLTSTPGNTELWAWVGAYDHVVLAQLWGDMRGLPKELPRYTHELKQYWEMAGRPRLPKLPEGNHDALVDARHNLQKFKICAESLPLNKRNVVNR | not soluble
9 | MTADANKSESLLCMDKAREAIKSGDTDKARRMLLKAKKLDPGQNIEFLTKKIDDMTNNTSSSSQTSSSRASEERSYAHDDHYDDPNLRNRKARSPVKKNGKTEPEPKQRSASRTPKLGVDYTSEQKELVERIRHCKDYYEILKIDKKASDDDIRKEYRKLALKLHPDKCRAPHATEAFKALGNAYAVLSDTDK | not soluble
10 | MTVNDKKRLAIIGGGPGGLAAARVFSQSLPNFEIEIFVKDYDIGGVWHYPEQKSDGRVMYDHLETNISKKLMQFSGFPFEENVPLYPSRRNIWEYLKAYYKTFIANKDAISIHFSTEVTYLKKKNSQWEITSKDELRTTKSDFDFVIVASGHYSVPKLPTNIAGLDLWFDNKGAFHSKDFKNCEFAREKVVIVVGNGSSGQDIANQLTTVAKKVYNSIKEPASNQLKAKLIETVQTIDSADWKNRSVTLSDGRVLQNIDYIIFATGYYYSFPFIEPSVRLEVLGEGVTGDKHSSVNLHNLWEHMIYVKDPTLSFILTPQLVIPFPLSELQAAIMVEVFCKSLPITTTFDSNACGTHNFPKERTWNTMQNYRNY | soluble
11 | MGSDKIHHHHHHMKLSLVISTSDAAFDALAFKGDLRKGMELAKRVGYQAVEIAVRDPSIVDWNEVKILSEELNLPICAIGTGQAYLADGLSLTHPNDEIRKKAIERVVKHTEVAGMFGALVIIGLVRGRREGRSYEETEELFIESMKRLLELTEHAKFVIEPLNRYETDFINTIDDALRILRKINSNRVGILADTFHMNIEEVNIPESLKRAGEKLYHFHVADSNRWAPGCGHFDFRSVFNTLKEIGYNRYVSVECLPLPGGMEEAAEIAFKTLKELIIKLT | not soluble
12 | EQMQSEFFYTDRKKIKWSLPSQPKVDIVELELLVARFIGEEKATKCFEKFHSMNQTKDNKKFNEAILFHAENTLARVLGSASAKLVTSLAISSRGMAFDQVAKLVEDNSTQQLEFSRTVLQSAIENVSEGISVIDSELKLVAWNKQYLDIFSYPEAFIYIGCPISQLIHFNLSQQGYFAKDIDLRVK | not soluble
13 | MTDMTYTIALMGNPNTGKSTLFNVLTGLRQHTGNWPGKTVTHAEGECRHRGTLYRIVDLPGTYSLYSNSADEEVARDFLLFQRPDVTIVVVDATALERNLNLALQVLEMTDRVIIAINLMDEAKKKGIHINTKKLAAKLGVPVVPISARNREGIDALLDTVDAMAHGRINTNPLSIRYSPEIERGIAKLLPLVKDVMGDTYPARWIALRLLDGDTSLLQALKQPPQPLIKEGNAYACCGSVKSV | not soluble
14 | LSEKEFFMSRAIKLAKLGWGKTNPNPLVGAVVVKDGKIIAEGYHKQLGGPHAEVEAFNNAKEDVAGGTLYVNLEPCSHYGRTPPCAQKIIDVGIKKVVAAIKDPNPKVSGRGFEMLKNAGIEVEVGVLEEEAIRLNEIFITYIVKKKPFVILKTAMTLDGKIATASGDSKWVTGEKARNHVHVIRDRVAAVMVGINTVLKDNPYLTTRLPDKEGSDPVRIVVDSKGSIPLDSNVINSNSKAGVILATTSRIDKEKEKMLIDKGVKIIKADGSDGRVDLKLLMDELYKLEIDSVLLEGGGTLNSSAISAGIVDKVMCFISPKIVGGENAPTSVEGIGALRMCEAIGVKNISVVKFGEDILLEGYIE | soluble
15 | MTMQHASSAGRRPAVPVYLKIRNAIRDAISNAAYAPGDLLPSETELAKRYATTRATVVHAIQQLVFEGLVERKRGVGSFVAQPKLSSTVDTHRVAYFEQDAFARDLTYEVIGYGKAVVEDHVRDTLRLGRGEPVYRLQRLRLLLGKPIAFELRYLPALVGARLTAEMLARRSVQSLLDEEVGMPITRFLNAVRVALVPAAVARHLQLEKGRPVMVRTHTFLDAADTPLLWGETLYREEYQINYVLTAMQAPDEAVGGRPRKGAGRA | not soluble
16 | MRLYLLAFLALFGMNAMAADNWKAFPYDQSAYDYPGDKLKEAWPRLTRGFGDYPYPDADWVVNMATAHPDALEKTVKAGTGFTGKPEEAAQYAARLQDVWRLLFRGDYAKAKEQGLALGVGGQVPAMFAQVLYAMFLAPGQAEKQRLLEEVIDYTEQAGPLVKADIVAQFGSVYAKARLAEELSVPVVLKRGYTSEIPKELDALLARQPNQPFALALYGGYEAGVIRKVGKLVGKMTYGVSADKMEQYFARSFRQANDLPIGHYEYANALTYVYGDDEREKAIAQLKQAVAIKPINAMEALEVAHAKKLLAGFEQNTAQR | not soluble
17 | MKLSTKLCWCGIKGRLRPQKQQQLHNTNLQMTELKKQKTAEQKTRPQNVGIKGIQIYIPTQCVNQSELEKFDGVSQGKYTIGLGQTNMSFVNDREDIYSMSLTVLSKLIKSYNIDTNKIGRLEVGTETLIDKSKSVKSVLMQLFGENTDVEGIDTLNACYGGTNALFNSLNWIESNAWDGRDAIVVCGDIAIYDKGAARPTGGAGTVAMWIGPDAPIVFDSVRASYMEHAYDFYKPDFTSEYPYVDGHFSLTCYVKALDQVYKSYSKKAISKGLVSDPAGSDALNVLKYFDYNVFHVPTCKLVTKSYGRLLYNDFRANPQLFPEVDAELATRDYDESLTDKNIEKTFVNVAKPFHKERVAQSLIVPTNTGNMYTASVYAAFASLLNYVGSDDLQGKRVGLFSYGSGLAASLYSCKIVGDVQHIIKELDITNKLAKRITETPKDYEAAIELRENAHLKKNFKPQGSIEHLQSGVYYLTNIDDKFRRSYDVKK | soluble
18 | MEKFIDENVAFGRMPYEDEIDELVEKFDAFVVLVEDFELVYDIEELKKKVDVLHSPIPDFTAPSLSQLYKIVKWIEEKVKEGKKVYIHCYGGSGRSGTVAVAWLMYSQGLSLREGLRRVRLLKPSAVETEDQLEVLREFERFLDTR | soluble
19 | MSLSHYTVGELANHLGVTVRTLQYYDRKGLLTAERATESNRRYYNDDHIQQLQLIFLLKQFGCTLDEIKTLLYEDSDMQTLKAMLQLHKKKLETSIHDQTKALKHLNNVDQYISSHSSAPINHLSDIDKAVKQSTTLKSEGHHHHHH | not soluble
20 | MGSDKIHHHHHHMTLHKICILGGTGFVGRHLAERLSQKGHAVRILTRNRERHRENLLVLPGVELIEANVHDPVALKKQLAGRDVVINLVGILNERHQGDFDRNHVELPRLVVGACNDLGIPRLLHMSALGASPTGPSAYLRSKGTGEEIVRQSNGNRAEMGRFDDLEEPMPLWSHGLKTTSFRPAVIFGEGDSFFNRFAGLLRRIPFFIPLARSKARMQPVWIEDVVSAYVQSMDDEKTYGQAYDLCGPKVYTLGELVAYTQSLIGTRRVIVPLGDFAGNLQASIMERLPGKVLTRDNLLSLSIDSVCTRNDLAESFQIEATSVESIVPGYLGGKGARAERLAEIRNRRS | not soluble
21 | MLPEEHLMLRQAVILVGGLGTRLGERTKARPKPMLEIGGRPFLDTLIDELDRYQIFDEILLLAGHKAEIVETHYAGATRGRAKIVVSRETEPLGTGGALVHAAPLLDQHFLLLNGDSLFDFNLLDLIARAQGGRVHMALRDGVVGDRYGRVVLDGDIVRDFIAPGAGATGPVNAGIYVVDKSIIAEIAKLPASLEQDVFPGLVRSGELRGTAYRGYFIDIGIPDDFARADRELREKLQRPAVFFDRDGVLNHDSGYTFETHKLEWIEGAREAVKAVNDAGYFAFVITNQSGVARGYYEEHHVLALHRWMADQMALIGAHIDAFEYCPDHPDGTVARYCRISDRRKPAPGMITDLAQRFSVDMTRSMVVGDKDSDMAAAQAAGLAGHMFEGGNLEAFVKQRLKPADKGLEHHHHHH | not soluble
22 | MAHHHHHHMLSTTDGTTSTLSPERTAVIELHTSASYARDTVHRLREYCNSLEATRQQLRRRLSSVPNSHNVSAVALSRARSPSSLSHLHGQAPLPPLAAAAPTLSRPFFTSEYIDPEVDATLQDVDETTALETMIVLHEDGAGTITKRMIDGSQSCISSLAVHSSSPQSQRPAATTASLLAIHSPTPVAENGTSWARQYSPLALRRMKPQQLLSHYLRDTHNAMVIADEPRAHRHSSSLCTNASSSCCVPVVRLGKPMRSASASLWNASDVNMHFPHAVPLAPSLSESPPKQAPSTGRFVVPPATPLDESDAEQLPPQSLPPRPNNHKTTAGASVFVSLAGCTAPGQFAGLQTGVTSSTMGASSRVNSQRFAMKGLRESVSPKEHGTRSRSKSSRSSAGSEALVSGKQTTSSASAAAASAPLWDPTRHSLQSPSPVMLSTSTETSAASALVVSDRLGTPVTTSGCEVGVPGASNDSVHRPRPIGTSLITAVASTSFSPLSAPAPDSEEPQPPAETAVQPHIRSPLRRLHLEAHAVRCDHASSGNRRDLYTDSLHVSGSASPAPSTPRNSEENSGDRCKRSNTTAFLDEEKREASAVSTAGACRVSAQLPVLESDVVSPDGADSFHSKDAAVSPRRSSERTVNFLSPDQVEGSLLPQPQRPTSQRLISPSPPRGVAADSNEQNPRDGNTDLKAVSAESIPKDADIDSTSPRRHLVLPQHRSPVAPPRVVIISKDDESPSPARSSLSRSLHSLPSTLSDGHCDDASDDGDDEDGSLWYSEQF | not soluble
